{"source": "patent US8815213B2", "about": "“RGD-(bacterio)chlorophyll conjugates for photodynamic therapy and Imaging of Necrotic tumors” (Yeda Research and Development Co. Ltd., priority 2008, dated 2014)", "key": {"[1]": {"tested_on": "xenografts of primary tumors", "details": "up to; cited from earlier work"}, "[2]": {"tested_on": "MDA-MB-231-RFP necrotic tumor domains", "test": "Excised tumor fluorescence imaging, viable versus necrotic domains", "type": "in vivo, mice", "description": "(§1) Mice were sacrificed, tumors were excised, cut in half and imaged at different time intervals: 10 min, 1, 4 and 24 h, 3, 5 and 7 days for MDA-MB-231-RFP and 7 days for MLS-mBanana using the Xenogen IVIS® System. Filter sets used for the fluorescence imaging are described in (vii).\nThe markedly different dynamic fluorescence patterns of necrotic and non-necrotic breast tumor xenografts implanted in the mammary pads, motivated investigation of the correlation between the tumor histology and compound 13 fluorescence signal accumulation. […] Images were taken at several time points (10 min, 1, 4 and 24 h, 3, 5 and 7 days post injection) using Xenogen IVIS® System as described in Materials and Methods, section (vii). Results shown in FIGS. 23-29 present compound 13 fluorescence accumulation at different time points. For each time point, 3 animals were tested. […] At 4 h, there was some diffusion towards the necrotic domain. […] In this set of experiments it was shown that as time progresses, compound 13 moves through the viable domain into the necrotic domain and accumulates there specifically for a long period of time.\nIn view of the pattern of accumulation observed for compound 13, other Bchl derivatives were tested. […] Images were taken using Xenogen IVIS® System as described above. […] Similar results were observed when tumors were excised 3 and 5 days post drug injection (N=3 for each time point)."}, "[3]": {"tested_on": "MDA-MB-231-RFP non-necrotic tumors (~0.5 cm^3)", "test": "In-vivo whole body NIR fluorescence imaging of drug up-take in primary non-necrotic MDA-MB-231-RFP xenograft tumors", "experimental": "(§2) (vi) Mouse tumor model—MDA-MB-231-RFP fluorescent human breast cancer cells and MLS-mBanana fluorescent human ovarian cancer cells (5×10^6 in 100 μl saline) were trypsinated and collected at subconfluency and then inoculated into the back or mammary fat pad of female mice. Tumors were allowed to develop to two desired sizes—necrotic tumors (˜1 cm^3, within 3-4 weeks) and non-necrotic tumors (˜0.5 cm^3 within 1-2 weeks).\n(§3) (vii) Whole body fluorescence imaging—Mice were anaesthetized by i.p. injection of 30 μl mixture of 85:15 ketamine:xylazine. […] Red fluorescent protein (RFP), pRSETB-mBanana and the photosensitizers fluorescence were monitored by in-vivo optical imaging system, IVIS®100 (Xenogen Corp., Alameda, Calif.). Main filter set for tumor imaging comprised excitation filter at 500-550 nm and emission filter at 575-650 nm; Background filter set for subtracting tissue auto-fluorescence comprised excitation filter at 460-490 nm and emission filter at 575-650 nm. Drugs imaging main filter set comprised excitation filter at 665-695 nm and emission filter at 810-875 nm. Images were obtained during the same exposure time and are illustrated on the same linear color scale to allow for a qualitative comparison.\n(§4) The same parameters were next examined in tumors ≦0.5 cm^3, which are non-necrotic."}, "[4]": {"tested_on": "MDA-MB-231-RFP non-necrotic and necrotic tumors at the mammary pad", "test": "Uptake of compound 25 in MDA-MB-231-RFP primary, necrotic and non necrotic tumors", "type": "in vivo, CD1-nude mice", "description": "Two experiments were performed in order to determine whether the tumor up-take of compound 13 and the resulted accumulation of the NIR fluorescence signal are driven by the RGD moiety. In the first experiment the accumulation of the fluorescence signal at different times after compound 13 injection was compared to that of free 2H-MLT (compound 25) injection to CD1-nude mice grafted with MDA-MB-231-RFP non-necrotic (≦0.5 cm^3) and necrotic (˜1 cm^3) tumors at the mammary pad. The second experiment was a competition assay between compound 13 and free c(RGDfK).\nDynamic fluorescence images were acquired for both necrotic and non necrotic tumors every 1-1.5 h for 8.5-9 h, and at 24 h after initial injection of compound 25 (FIGS. 18A-18B and 20A-20B) and for every 24 h for the following three days (FIGS. 19A-19B and 21A-21B). […] The fluorescence signal values were ˜2 orders of magnitude smaller than the maximally observed values for compound 13 (at much longer time intervals). The fluorescence signal dropped down to non-significant values already at 20 min post injection. Meanwhile, the fluorescence signal accumulated mostly in the liver and in the heart."}, "[5]": {"tested_on": "MDA-MB-231-RFP non-necrotic tumors (~0.5 cm^3)", "details": "mouse, in vivo", "experimental": "as §2, §3, §4"}, "[6]": {"tested_on": "MDA-MB-231-RFP primary non-necrotic tumors", "test": "Competition assay between compound 13 and free c(RGDfK) binding", "type": "in vivo, mice", "details": "24 h", "description": "(ix) Competition assay between compound 13 and free c(RGDfK) binding—Mice were injected with excess (8.5 μmol) of free c(RGDfK) peptide one hour prior to the injection of compound 13 (140 nmol). The control group was injected only with compound 13 (140 nmol). Fluorescent images were taken 24 h post compound 13 injection. Fluorescence imaging main filter set was used as described in (vii).\nCompound 13 was administrated with or without prior injection of c(RGDfK) as described in Example 3."}, "[7]": {"tested_on": "human ovarian MLS-mBanana primary tumors, necrotic (>1 cm^3)", "test": "In-vivo NIR fluorescence imaging of uptake in MLS-mBanana primary necrotic tumors", "set-up": "species or system CD-1 nude female mice", "from_the_text": "In order to establish the generality of the results obtained in the experiments above, the accumulation of compound 13 in the necrotic domain was further examined in a different tumor type, generated from MLS-mBanana human ovarian cancer cell line. […] Shortly after injection, the compound 13 NIR fluoresces was mostly detected from the liver and the tumor."}, "[8]": {"tested_on": "MLS-mBanana non-necrotic tumors (~0.5 cm^3)", "details": "mouse, in vivo", "text": "Red fluorescent protein (RFP), pRSETB-mBanana and the photosensitizers fluorescence were monitored by in-vivo optical imaging system, IVIS®100 (Xenogen Corp., Alameda, Calif.). Main filter set for tumor imaging comprised excitation filter at 500-550 nm and emission filter at 575-650 nm; Background filter set for subtracting tissue auto-fluorescence comprised excitation filter at 460-490 nm and emission filter at 575-650 nm. Drugs imaging main filter set comprised excitation filter at 665-695 nm and emission filter at 810-875 nm. Images were obtained during the same exposure time and are illustrated on the same linear color scale to allow for a qualitative comparison."}, "[9]": {"tested_on": "MLS-mBanana necrotic tumor domains", "test": "Excised tumor fluorescence imaging, MLS-mBanana", "type": "in vivo, mice", "details": "7 days post drug injection", "description": "as §1\nHere the results were somewhat different. In most cases the necrosis pattern in this type of tumor was not central, namely, there was a wide spread necrosis that was not specifically located in the middle of the tumor or generated from one place in the tumor. In these cases, the accumulation was not as prolonged. In the few cases where central necrosis was observed, the accumulation pattern was similar to that in the MDA-MB-231-RFP tumors. FIGS. 31-32 show the results obtained 7 days post drug injection."}, "[10]": {"tested_on": "MDA-MB-231-RFP necrotic tumors", "test": "Fluorescence signal measurement in necrotic tumors, tumor vs. collateral side", "type": "in vivo", "details": "average of 9 mice", "description": "(viii) Fluorescence signal measurement in necrotic tumors—Tumor margins—region of interest (ROI), from the whole body in-vivo images was marked and the fluorescence signal within the circled margins was expressed in photon/sec.\nThe same ROI was used to measure photon/sec in the collateral side. In addition, for background measurements, tumor and collateral side ROIs were measured in three untreated mice and averaged. Measured values of the fluorescence from each ROI were divided by the area to provide normalized fluorescence signal intensity in photon/sec/cm^2. Signal measurements were collected from 15 min to 216 h post compound 13 injection. In each time point, the background was subtracted and the average was calculated as was the ratio between the fluorescence in the tumor margins and the collateral side.\nIn order to evaluate semi-quantitatively the accumulation pattern of compound 13 in necrotic tumors, the average fluorescence signal for compound 13 in necrotic tumors of 9 mice was calculated and plotted over 216 h, at several time points (FIG. 8). From 12 h post injection and onward the fluorescence signal from the tumor became distinctively stronger than that of an equivalent control region on the collateral side. The ratio of the fluorescence between the tumor and the collateral side increased in time and reached a plateau at ˜8 from 192 h."}, "[11]": {"tested_on": "orthotopic human breast MDA-MB-231-RFP primary tumor, necrotic (~1 cm^3)", "details": "mouse, in vivo", "experimental": "as §2, §3\nThe accumulation pattern of compound 13 in necrotic MDA-MB-231-RFP tumors (≧1 cm^3) in vivo was examined. […] Whole animal images were recorded concomitantly, using the filter sets as described in Materials and Methods section (vii) above. Dynamic fluorescence images were acquired every 1-1.5 h for 9 h, and at 24 h post injection of compound 13 (FIGS. 4A-4B), and then for every 24 h for the next 7 days (FIGS. 5A-5B)."}}, "note": "Where a name gives a salt, the structure may show the parent alone. Read-outs that look alike come from different tables or passages of the source.", "data": [{"molecule": "Palladium 3^1-oxo-15-methoxycarbonyl-methyl-Rhodobacteriochlorin 13^1-(2-sulfoethyl)amide-17^3-c(RGDfK)amide potassium salt [compound 24]", "values": [{"measurement": "accumulation in xenografts of primary tumors", "setting": "[1]", "result": "4 to 8", "unit": "µM"}, {"measurement": "presence of drug in excised tumor", "setting": "[2]; nine days post drug injection, N=3", "result": "clearly present in the necrotic domain"}, {"measurement": "time at which NIR fluorescence reached peak values in the liver", "setting": "[3]; 15 mg/kg i.v., post drug injection", "result": 5.5, "unit": "h"}, {"measurement": "time at which NIR fluorescence reached peak values in the tumor", "setting": "[3]; 15 mg/kg i.v., post injection", "result": "~2.5", "unit": "h"}, {"measurement": "fluorescence from the non-necrotic tumors", "setting": "[3]; 24 hours post injection", "result": "practically no fluorescence"}, {"measurement": "time of peak tumor fluorescence, averaged measurements", "setting": "[3]; post drug injection, 16 animals (compound 13), 5 animals (compound 24)", "result": "1 to 4.5", "unit": "h"}]}, {"molecule": "CC[C@H]1c2cc3[nH]c(c(CC(=O)OC)c4nc(cc5[nH]c(cc(n2)[C@@H]1C)c(C(C)=O)c5C)[C@@H](C)[C@@H]4CCC(=O)O)c(C(=O)NCCS(=O)(=O)[O-])c3C.[K+]", "note": "[compound 25, 3^1-oxo-15-methoxycarbonylmethyl-Rhodo-bacteriochlorin 13^1-(2-sulfoethyl) amide potassium salt]", "values": [{"measurement": "accumulation in small (non-necrotic) and large (necrotic) tumors", "setting": "[4]; mouse, in vivo", "result": "no short or long term accumulation was observed"}, {"measurement": "fluorescence signal values, smaller than the maximally observed values for compound 13", "setting": "[4]; mouse, in vivo", "result": "~2 orders of magnitude"}, {"measurement": "time at which fluorescence signal dropped to non-significant values", "setting": "[4]; post injection", "result": "≤ 20", "unit": "min"}, {"measurement": "time of maximal concentration (NIR fluorescence signal) in the tumor", "setting": "[4]; post injection, if any concentration was observed at all", "result": "5 to 10", "unit": "min"}]}, {"molecule": "CC[C@H]1c2cc3[nH]c(c(CC(=O)OC)c4nc(cc5[nH]c(cc(n2)[C@@H]1C)c(C(C)=O)c5C)[C@@H](C)[C@@H]4CCC(=O)NCCCC[C@@H]1NC(=O)[C@@H](Cc2ccccc2)NC(=O)[C@H](CC(=O)O)NC(=O)CNC(=O)[C@H](CCCNC(=N)N)NC1=O)c(C(=O)NCCS(=O)(=O)O)c3C", "note": "[compound 13, 3^1-oxo-15-methoxycarbonylmethyl-Rhodobacteriochlorin 13^1-(2-sulfoethyl) amide-17^3-c(RGDfK)amide potassium salt]", "values": [{"measurement": "clearance from the tumor after accumulation", "setting": "[5]", "result": "< 24", "unit": "h"}, {"measurement": "complete drug clearance by that time", "setting": "[5]", "result": "≤ 3", "unit": "days"}, {"measurement": "fluorescence from the non-necrotic tumors", "setting": "[5]", "result": "practically no fluorescence"}, {"measurement": "time of peak tumor fluorescence, averaged measurements", "setting": "[5]", "result": "1 to 6.5", "unit": "h"}, {"measurement": "accumulation in the tumor", "setting": "[6]; 140 nmol alone (control group)", "result": "detectable"}, {"measurement": "accumulation in the tumor", "setting": "[6]; 140 nmol, 1 h after 8.5 μmol free c(RGDfK)", "result": "no accumulation in the tumor was detected"}, {"measurement": "clearance compared with MDA-MB-231-RFP necrotic tumors", "setting": "[7]; mouse, in vivo", "result": "markedly faster"}, {"measurement": "clearance from the tumor almost completed", "setting": "[7]; mouse, in vivo", "result": 3, "unit": "days"}, {"measurement": "complete drug clearance by that time", "setting": "[7]; mouse, in vivo", "result": "≤ 4", "unit": "days"}, {"measurement": "time of maximum concentration in the necrotic zone", "setting": "[7]; mouse, in vivo", "result": 24, "unit": "h"}, {"measurement": "concentration in necrotic tumors versus non-necrotic tumors", "setting": "[7]; same linear fluorescence scale, 2 days post injection", "result": "much higher"}, {"measurement": "almost complete drug clearance by that time", "setting": "[8]", "result": "≤ 4", "unit": "days"}, {"measurement": "time at which NIR fluorescence reached peak values in the tumor", "setting": "[8]", "result": "~1", "unit": "h"}, {"measurement": "time of peak tumor fluorescence, average measurements", "setting": "[8]", "result": "1 to 3.5", "unit": "h"}, {"measurement": "presence of drug in excised tumor", "setting": "[9]; central necrosis", "result": "clearly present in the necrotic domain"}, {"measurement": "presence of drug in excised tumor", "setting": "[9]; no central necrosis", "result": "not present"}, {"measurement": "ratio of the fluorescence between the tumor and the collateral side, plateau", "setting": "[10]; from 192 h post injection", "result": "~8"}, {"measurement": "time from which tumor fluorescence signal is distinctively stronger than collateral side", "setting": "[10]; post injection", "result": "≥ 12", "unit": "h"}, {"measurement": "time of peak tumor concentration ratio, compared to other organs", "setting": "[11]", "result": "≥ 48", "unit": "h"}, {"measurement": "clearance from the liver in the following days", "setting": "[11]; iv, 15 mg/kg", "result": "completely clearing from the liver"}, {"measurement": "clearance from the tumor thereafter", "setting": "[11]; iv, 15 mg/kg", "result": "extremely slow clearance"}, {"measurement": "location of drug fluorescence in excised tumor", "setting": "[2]; 10 min to 4 h post drug injection, 15 mg/kg", "result": "only at the viable area"}, {"measurement": "location of drug fluorescence in excised tumor", "setting": "[2]; 24 h post injection", "result": "higher drug fluorescence from the necrotic domain"}, {"measurement": "location of drug fluorescence in excised tumor", "setting": "[2]; from three days post injection (3, 5 and 7 days)", "result": "shifted completely to the necrotic zone"}]}]}
